Data taken from PMC9932110, “RanBP9 controls the oligomeric state of CTLH complex assemblies” (The Journal of Biological Chemistry, 2023).
Several values for one entry are separate records, joined by “and”; a condition that tells them apart may be missing. Equal values may be shown once.

T1: Wdr26 (mouse, UniProt Q8C6G8 1-641)
T1 chain: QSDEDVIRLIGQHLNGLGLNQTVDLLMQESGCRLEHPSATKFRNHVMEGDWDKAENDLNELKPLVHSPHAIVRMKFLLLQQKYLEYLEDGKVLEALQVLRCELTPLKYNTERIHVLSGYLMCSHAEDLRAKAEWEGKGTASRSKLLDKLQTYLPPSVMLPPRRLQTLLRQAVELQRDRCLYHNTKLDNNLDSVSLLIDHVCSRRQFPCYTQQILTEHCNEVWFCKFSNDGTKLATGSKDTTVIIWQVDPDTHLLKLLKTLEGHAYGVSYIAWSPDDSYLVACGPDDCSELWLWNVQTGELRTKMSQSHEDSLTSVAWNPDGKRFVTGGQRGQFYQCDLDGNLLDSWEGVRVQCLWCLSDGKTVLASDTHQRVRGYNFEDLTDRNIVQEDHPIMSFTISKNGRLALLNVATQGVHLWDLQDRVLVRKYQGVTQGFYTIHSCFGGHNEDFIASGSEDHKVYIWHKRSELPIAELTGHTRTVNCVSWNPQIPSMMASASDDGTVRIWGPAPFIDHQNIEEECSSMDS

B1: muskelin (natural protein, rat, UniProt Q99PV3 1-735, looked up)
chain: MAAGGAVAAAPECRLLPYALHKWSSFSSTYLPENILVDKPNDQSSRWSSESNYPPQYLILKLERPAIVQNITFGKYEKTHVCNLKKFKVFGGMNEENMTELLSSGLKNDYNKETFTLKHKIDEQMFPCRFIKIVPLLSWGPSFNFSIWYVELSGIDDPDIVQPCLNWYSKYREQEAIRLCLKHFRQHNYTEAFESLQKKTKIALEHPMLTDMHDKLVLKGDFDACEELIEKAVNDGLFNQYISQQEYKPRWSQIIPKSTKGDGEDNRPGMRGGHQMVIDVQTETVYLFGGWDGTQDLADFWAYSVKENQWTCISRDTEKENGPSARSCHKMCIDIQRRQIYTLGRYLDSSVRNSKSLKSDFYRYDIDTNTWMLLSEDTAADGGPKLVFDHQMCMDSEKHMIYTFGGRILTCNGSVDDSRASEPQFSGLFAFNCQCQTWKLLREDSCNAGPEDIQSRIGHCMLFHSKNRCLYVFGGQRSKTYLNDFFSYDVDSDHVDIISDGTKKDSGMVPMTGFTQRATIDPELNEIHVLSGLSKDKEKREENVRNSFWIYDIVRNSWSCVYKNDQAAKENLSKSLQEEEPCPRFAHQLVYDELHKVHYLFGGNPGKSCSPKMRLDDFWSLKLCRPSKDYLLRHCKYLIRKHRFEEKAQMDPLSALKYLQNDLYITVDHSDPEETKEFQLLASALFKSGSDFTALGFSDVDHTYAQRTQLFDTLVNFFPDSMTPPKGNLVDLITL
notes: muskelin, rat, 735 residues
B2: Wdr26 (natural protein)
chain: T1 chain
modifications: Supplement: residues 1-101 deleted. Paper gives 625 residues, matching E0CYH4 (CTLH 136-195) rather than the 641-aa Q8C6G8 canonical form (CTLH 136-211). Forms a concentration-dependent oligomer …

What was measured:
[1] = molecular target: the molecule itself; experiment: SEC-MALS; Superose 6 10/300 GL, SEC buffer; molar mass of single proteins and of complexes assembled from purified proteins
[2] = molecular target: T1, Wdr26; experiment: as above; settings: both partners purified
[3] = molecular target: T1, Wdr26; experiment: SEC-MALS; Wdr26 alone, dilution series from four batches, Superose 6 10/300 GL; molar mass at the peak against peak concentration, one-site model; dimer to higher oligomers; saturation not reached; settings: both partners purified

Binder	stoichiometry N [1]	stoichiometry N [2]	Kd [3] [µM]	stoichiometry N [3]
B1	4			
B2		2	10	≥ 8 and 12
